From US20210130452A1 (Merck KGaA, published 2021) come the findings set out here.

For orientation: koff means the rate constant with which the complex falls apart. Read a high koff as fast dissociation. Broadly, the IC50 is the concentration that gives 50% inhibition. Low values mean higher potency, high ones lower potency.

The target of experiment [1] is T1, human IL-17A (human, UniProt Q16552 24-155, biotinylated with Sulfo-NHS-LC-Biotin in the AlphaScreen assays only).
T1 construct: also called hIL-17A; recombinant human IL-17A
T1 sequence (Q16552 other isoform, or with tags, fused parts or gaps): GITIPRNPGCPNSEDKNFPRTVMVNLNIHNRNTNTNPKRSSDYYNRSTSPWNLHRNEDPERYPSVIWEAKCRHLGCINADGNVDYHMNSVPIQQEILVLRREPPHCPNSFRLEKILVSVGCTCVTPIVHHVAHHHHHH
As to the kind of experiment: SPR Biacore, hIL-17A on chip; periplasmic extract (*); NB = no binding. Background: In SPR one partner is held on a chip, and binding of the other changes the refractive index at the surface.
Protocol: (§1) Off-rates of the periplasmic extracts containing anti-IL-17 Nanobodies were measured by Surface Plasmon Resonance (SPR) using a Biacore T100 instrument. […] Periplasmic extracts containing IL-17 neutralizing Nanobodies were injected for 2 minutes at a flow rate of 45 μl/min to allow binding to chip-bound antigen. Next, binding buffer without periplasmic extracts was sent over the chip at the same flow rate to allow spontaneous dissociation of bound Nanobody. From the sensorgrams obtained for the different periplasmic extracts koff-values (k₄) were calculated.

The target of experiment [2] is T2, human IL-17A (human, UniProt Q16552 24-155).
T2 construct: secreted form (GenBank U32659) expressed in Hek293 with C-terminal 6-His; also called hIL-17A; IL-17A-6HIS
T2 sequence (Q16552 other isoform, or with tags, fused parts or gaps): as above
As to the kind of experiment: SPR.

In experiment [3] the target is T3, human IL-17A/F heterodimer (human, UniProt Q16552 24-155; Q96PD4 31-163, limits assumed).
T3 construct: produced in E. coli, bought from R&D Systems (Cat 5194-IL/CF); also called hIL-17A/F
T3 sequence (Q16552 24-155 limits assumed, chain 1 of 2, one chain of several): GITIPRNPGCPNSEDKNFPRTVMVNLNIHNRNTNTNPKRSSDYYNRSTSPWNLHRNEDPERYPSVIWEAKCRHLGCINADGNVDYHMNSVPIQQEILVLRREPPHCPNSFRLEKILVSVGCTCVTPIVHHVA
As to the kind of experiment: SPR.

For experiment [4], the target named is T2, human IL-17A. As to the kind of experiment: AlphaScreen IL-17A-IL-17RA, average. A general note: Bead proximity is the source of the signal in Alpha formats.
Experiment [5] has as its target T4, human IL-17A/F heterodimer (human, UniProt Q16552 24-155; Q96PD4 31-163, limits assumed, biotinylated with Sulfo-NHS-LC-Biotin in the AlphaScreen assays only).
T4 construct: also called hIL-17A/F
As to the kind of experiment: AlphaScreen competition, hIL-17A/F - IL-17RA-Fc.
Target sequence in this assay (Q16552 24-155 limits assumed, one chain of several): as the sequence (Q16552 24-155 limits assumed, chain 1 of 2, one chain of several) above
Protocol: (§2) To this mixture, the IL-17RA or IL-17RC Fc-fusions, Acceptor beads and the streptavidin Donor beads were added and further incubated for 1 hour at RT.

In experiment [6] the target is T4, human IL-17A/F heterodimer. As to the kind of experiment: cell-based or functional assay.
Target sequence in this assay (Q16552 24-155 limits assumed, chain 1 of 2, one chain of several): as above
Experiment [7] concerns the target T5, human IL-17F (human, UniProt Q96PD4 31-163, biotinylated with Sulfo-NHS-LC-Biotin in the AlphaScreen assays only).
T5 construct: also called hIL-17F; recombinant human IL-17F
T5 sequence: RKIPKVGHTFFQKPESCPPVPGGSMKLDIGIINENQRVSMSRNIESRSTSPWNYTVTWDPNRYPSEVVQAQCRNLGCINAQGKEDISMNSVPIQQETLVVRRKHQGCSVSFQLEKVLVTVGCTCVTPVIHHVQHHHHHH
As to the kind of experiment: AlphaScreen competition, hIL-17F - IL-17RC-Fc.
Protocol: as §2

Experiment [8] concerns the target T4, human IL-17A/F heterodimer. As to the kind of experiment: SPR Biacore, hIL-17A/F on chip; purified protein.
Target sequence in this assay (Q16552 24-155 limits assumed, chain 1 of 2, one chain of several): as the sequence (Q16552 24-155 limits assumed, chain 1 of 2, one chain of several) above
For experiment [9], the target named is T5, human IL-17F. As to the kind of experiment: AlphaScreen competition, hIL-17F - IL-17RA-Fc.
Protocol: as §2
For experiment [10], the target named is T5, human IL-17F. As to the kind of experiment: cell-based or functional assay.
Experiment [11] addresses T4, human IL-17A/F heterodimer. As to the kind of experiment: AlphaScreen competition, hIL-17A/F - IL-17RC-Fc.
Target sequence in this assay (Q16552 24-155 limits assumed, chain 1 of 2, one chain of several): as the sequence (Q16552 24-155 limits assumed, chain 1 of 2, one chain of several) above
Protocol: as §2
Experiment [12] has as its target T5, human IL-17F. As to the kind of experiment: SPR Biacore, hIL-17F on chip; purified protein.
Protocol: as §1
For experiment [13], the target named is T6, human IL-17F (human, UniProt Q96PD4 31-163).
T6 construct: made in Hek293 cells (GenBank AF384857); also called hIL-17F; hIL17F
T6 sequence: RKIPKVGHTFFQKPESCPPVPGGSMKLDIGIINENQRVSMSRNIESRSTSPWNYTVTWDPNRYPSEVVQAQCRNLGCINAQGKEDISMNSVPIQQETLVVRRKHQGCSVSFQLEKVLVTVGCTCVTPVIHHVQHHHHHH
As to the kind of experiment: AlphaScreen IL-17F-IL-17RC; vs IL17MS16A04.

B1: 24B08 (VHH)
VHH: EVQLVESGGGLVQAGGSLRLSCAVSGGTFSTYKMGWFRQAPGKEREIVARISTNGPTAYAEFVKGRFTVSRENTKNTVYLQMNSLNIEDTAVYYCAAGYDSLFAGYDYWGQGTQVTVSS
notes: Class 3 Nanobody (anti-IL-17F); not shown: c-myc, His6 tag
Regarding B1, the binding result in the experiment with human IL-17A [1] is on record as “no binding”.

B2: 07B11 (VHH)
VHH: EVQLVESGGGLVQAGGSLRLSCVASGRAFSSYVMGWFRQAPGMEREFVALIRWSDGITGYVDSVKGRFTISRDNAKNTVYLQMNSLKPEDTAVYYCAAAVRPGDYDYWGQGTQVTVSS
notes: as for B1
Take B2: in the experiment with human IL-17A [1], the binding result is “no binding”.

B3: IL17MS3010 (VHH, name in Kabat numbering)
VHH: EVQLVESGGGLVQPGGSQRLSCTASGTIVNIHVMGWYRQAPGKQRELVALIFSGGSADYADSVKGRFTISRDNSKNTVYLQMNSLRAEDTAVYYCAAEIGYYSGGTYYSSEAHWGQGTLVTVSS
notes: also called IL17MS3010 basic
As for B3, the values for the koff (with human IL-17A [2]; in experiment [3]) were 0.00013 s⁻¹ and 0.000217 s⁻¹, respectively. In the experiment with human IL-17A [4], this molecule displayed an IC50 of 0.184 nM.

B4: IL17MS3013 (VHH, name in Kabat numbering)
VHH: EVQLVESGGGLVQPGGSQRLSCTASGTIVNIHVMGWYRQAPGKQRELVALIFSGGSADYADSVKGRFTISRDNSKNTVYLQMNSLRPEDTAVYYCAAEIGYYSGGTYYSSEAHWGQGTLVTVSS
notes: basic + A84P; Kabat positions
On to B4, for which the koff worked out at 0.000116 s⁻¹ with human IL-17A [2] and 0.000185 s⁻¹ in experiment [3]. The molecule further gave an IC50 in the experiment with human IL-17A [4] of 0.081 nM.

B5: IL17MS3017 (VHH, name in Kabat numbering)
VHH: EVQLVESGGGLVQPGGSLRLSCAASGTIVNIHVMGWYRQAPGKQRELVALIFSGGSADYADSVKGRFTISRDNSKNTVYLQMNSLRPEDTAVYYCAAEIGYYSGGTYYSSEAHWGQGTLVTVSS
notes: basic + Q18L, T23A, A84P; Kabat positions
As for B5, the koff with human IL-17A [2] was 0.000144 s⁻¹; in experiment [3], 0.000242 s⁻¹. In the experiment with human IL-17A [4], this molecule came in with an IC50 of 0.163 nM.

B6: IL17MS3011 (VHH, name in Kabat numbering)
VHH: EVQLVESGGGLVQPGGSLRLSCTASGTIVNIHVMGWYRQAPGKQRELVALIFSGGSADYADSVKGRFTISRDNSKNTVYLQMNSLRAEDTAVYYCAAEIGYYSGGTYYSSEAHWGQGTLVTVSS
notes: basic + Q18L; Kabat positions
In the case of B6, the koff amounted to 0.000132 s⁻¹ with human IL-17A [2] and 0.000223 s⁻¹ in [3]. In the experiment with human IL-17A [4], half-maximal inhibition (IC50) was put at 0.139 nM.

B7: IL17MS3012 (VHH, name in Kabat numbering)
VHH: EVQLVESGGGLVQPGGSQRLSCAASGTIVNIHVMGWYRQAPGKQRELVALIFSGGSADYADSVKGRFTISRDNSKNTVYLQMNSLRAEDTAVYYCAAEIGYYSGGTYYSSEAHWGQGTLVTVSS
notes: basic + T23A; Kabat positions
As for B7, the koff with human IL-17A [2] was found to be 0.000137 s⁻¹; in [3] it was 0.000228 s⁻¹. The same molecule had an IC50 with human IL-17A [4] of 0.101 nM.

B8: 08B07 (VHH)
VHH: EVQLVESGGGLVQPGGSLRLSCAASGRDFRVKNVGWIRQAPGKQRELVATITVGGSTNYADSAKGRFTISRDNAKNTVYLQMSSLKPEDTAVYYCNAVATVTDYTGTYSDGFWGQGTQVTVSS
notes: as for B1
Take B8: in the experiment with human IL-17A [1], the binding result is “no binding”.

B9: 12A09 (VHH)
VHH: EVQLVESGGGLVQPGGSLRLSCAASGFTFSSYRMAWVRQAPGKGLEWVSSTSTGGEMTNYADSVKGRFTISRDNAKNTLHLQMNSLKPEDTALYYCAAGTSAGHWSTGGQGTQVTVSS
notes: as for B1
With B9, the binding result with human IL-17A [1] is “no binding”. Moreover, the IC50 in experiment [5] was > 250 nM; with human IL-17F [7], 0.612 nM; in the experiment with human IL-17F [9], 1.84 nM; in experiment [11], 33.2 nM. Moreover, the “IL-17A/F-induced IL-6 production in HT-1080 cells, Emax” value in [6] came out at 41.5%. Also, the “IL-17A/F-induced IL-6 production in HT-1080 cells, IC50” value in [6] stood at 100 nM. Besides, the koff in [8] came out at 0.017 s⁻¹. Besides, the “IL-17F-induced IL-6 production in HT-1080 cells, Emax” value with human IL-17F [10] came to 91%. Besides, the “IL-17F-induced IL-6 production in HT-1080 cells, IC50” value with human IL-17F [10] came out at 105 nM.

B10: 08A08 (VHH)
VHH: EVQLVESGGGLVQAGGSLRLSCAASGRTFRPYRMGWFRRAPGKAREFVTLISWSSGRTSYADSVKGRFTISRDSAKNAVYLQMDNLKPEDTAVYFCAVDLSGDAVYDSWGQGTQVTVSS
notes: as for B1
Consider B10, for which, in the experiment with human IL-17A [1], the binding result is reported as “no binding”. Moreover, the IC50 with human IL-17F [7] amounted to 1.3 nM; in the experiment with human IL-17F [9], 3.84 nM; in experiment [11], 19.7 nM. In addition, the off-rate constant (koff) in experiment [8] was 0.0079 s⁻¹; with human IL-17F [12], 0.048 s⁻¹. Besides, the “IL-17F-induced IL-6 production in HT-1080 cells, Emax” value with human IL-17F [10] worked out at 62%. The “IL-17F-induced IL-6 production in HT-1080 cells, IC50” value with human IL-17F [10] was found to be 206 nM.

B11: IL17MS3059 (VHH)
VHH: DVQLVESGGGLVQPGGSLRLSCAASGRTFSSYVVGWFRQAPGKEREFVGAISGSGESIYYAVSEKGRFTISRDNSKNTLYLQMNSLRPEDTAVYYCTADQEFGYLRFGRSEYWGQGTLVTVSS
notes: variant of IL17MS16A04; Kabat numbering
For the molecule B11, the “IC50 fold difference vs WT” value in the experiment with human IL-17F [13] is 6.7 fold.

B12: IL17MS3065 (VHH)
VHH: DVQLVESGGGLVQPGGSLRLSCAASGRTFSSYVVGWFRQAPGKEREFIGAISGSGDTIYYAVSEKGRFTISRDNSKNTLYLQMNSLRPEDTAVYYCTADQEFGYLRFGRSEYWGQGTLVTVSS
notes: as for B11
For the molecule B12, the “IC50 fold difference vs WT” value in the experiment with human IL-17F [13] was found to be 12.7 fold.

B13: IL17MS3062 (VHH)
VHH: EVQLVESGGGLVQPGGSLRLSCAASGRTFSSYVVGWFRQAPGKEREFVGAISGSGESIYYAVSEKGRFTISRDNSKNTLYLQMNSLRPEDTAVYYCTADQEFGYLRFGRSEYWGQGTLVTVSS
notes: as for B11
On to B13, for which the “IC50 fold difference vs WT” value in the experiment with human IL-17F [13] came to 7.4 fold.

B14: IL17MS3064 (VHH)
VHH: DVQLVESGGGLVQPGGSLRLSCAASGRTFSSYVVGWFRQAPGKEREFVGAISGSGDTIYYAVSEKGRFTISRDNSKNTLYLQMNSLRPEDTAVYYCTADQEFGYLRFGRSEYWGQGTLVTVSS
notes: as for B11
As to B14, in the experiment with human IL-17F [13], the “IC50 fold difference vs WT” value was determined as 30.3 fold.

B15: 07B09 (VHH)
VHH: EVQLVESGGGLVQAGGSLRLSCGASGGTFSSYATGWFRQAPGKEREFVAVLRWSDGHTAYADSVKGRFTISRDGAKNTMYLQMSSLKPEDTAIYYCTTATRPGEWDYWGQGTQVTVSS
notes: as for B1
For the molecule B15, the binding result with human IL-17A [1] is on record as “no binding”.

B16: 24G10 (VHH)
VHH: EVQLVESGGGLVQAGGSLRLSCGAAGGTFSSYATGWFRQAPGKEREFVAVFRWSDSHTAYADSVKGRFTISRDGAKNTLYLQMSSLKPEDTAIYYCTTATRPGEWDYWGQGTQVTVSS
notes: as for B1
B16: in the experiment with human IL-17A [1], the binding result is on record as “no binding”.
